Test results from paper PMC3360003.

Assays:
[1] = target: Influenza A virus matrix 1 (M1) protein with a C-terminal His6-tag (Influenza A virus A/chicken/Jiangsu/1/1998 (H9N2)); experiment: SEC; […], pH 5.0, 25°C; […]
[2] = target: Influenza A virus matrix 1 (M1) protein with a C-terminal His6-tag (Influenza A virus A/chicken/Jiangsu/1/1998 (H9N2)); experiment: […]; 0.2% ([…], pH 8.0, room temperature, 5 min; […]
[3] = target: Influenza A virus matrix 1 (M1) protein with a C-terminal His6-tag (Influenza A virus A/chicken/Jiangsu/1/1998 (H9N2)); experiment: SEC

Measured: stoichiometry N

Influenza A virus matrix 1 (M1) protein with a C-terminal His6-tag (natural protein)
2: [1] | [2] | [3]
